Data: patent publication US20210190798A1 (AstraZeneca / MedImmune, published 2021)

T1: recombinant human gp130 (human, UniProt P40189 23-619, limits assumed)
T1 construct: Coated on ELISA plates
T1 sequence (looked up): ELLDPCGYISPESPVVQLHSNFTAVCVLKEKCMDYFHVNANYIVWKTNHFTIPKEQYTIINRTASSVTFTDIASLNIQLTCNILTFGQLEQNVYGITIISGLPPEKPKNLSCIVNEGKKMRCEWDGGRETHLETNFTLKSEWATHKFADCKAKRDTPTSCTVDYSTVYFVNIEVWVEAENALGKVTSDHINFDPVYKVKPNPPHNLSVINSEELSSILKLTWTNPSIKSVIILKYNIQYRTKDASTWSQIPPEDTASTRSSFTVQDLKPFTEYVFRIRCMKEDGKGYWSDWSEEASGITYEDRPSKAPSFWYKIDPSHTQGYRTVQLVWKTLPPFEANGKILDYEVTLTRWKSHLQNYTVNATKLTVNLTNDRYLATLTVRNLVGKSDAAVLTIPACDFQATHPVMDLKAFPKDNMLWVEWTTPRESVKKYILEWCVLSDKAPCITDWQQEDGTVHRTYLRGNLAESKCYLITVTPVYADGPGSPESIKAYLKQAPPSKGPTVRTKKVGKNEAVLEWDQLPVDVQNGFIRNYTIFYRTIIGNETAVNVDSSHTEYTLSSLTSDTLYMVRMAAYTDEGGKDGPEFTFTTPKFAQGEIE

T2: recombinant human LIFR (LIF receptor) (human, UniProt P42702 45-833, limits assumed)
T2 construct: Soluble analyte in the Octet assay and coated on ELISA plates; also called hLIFR
T2 sequence (looked up): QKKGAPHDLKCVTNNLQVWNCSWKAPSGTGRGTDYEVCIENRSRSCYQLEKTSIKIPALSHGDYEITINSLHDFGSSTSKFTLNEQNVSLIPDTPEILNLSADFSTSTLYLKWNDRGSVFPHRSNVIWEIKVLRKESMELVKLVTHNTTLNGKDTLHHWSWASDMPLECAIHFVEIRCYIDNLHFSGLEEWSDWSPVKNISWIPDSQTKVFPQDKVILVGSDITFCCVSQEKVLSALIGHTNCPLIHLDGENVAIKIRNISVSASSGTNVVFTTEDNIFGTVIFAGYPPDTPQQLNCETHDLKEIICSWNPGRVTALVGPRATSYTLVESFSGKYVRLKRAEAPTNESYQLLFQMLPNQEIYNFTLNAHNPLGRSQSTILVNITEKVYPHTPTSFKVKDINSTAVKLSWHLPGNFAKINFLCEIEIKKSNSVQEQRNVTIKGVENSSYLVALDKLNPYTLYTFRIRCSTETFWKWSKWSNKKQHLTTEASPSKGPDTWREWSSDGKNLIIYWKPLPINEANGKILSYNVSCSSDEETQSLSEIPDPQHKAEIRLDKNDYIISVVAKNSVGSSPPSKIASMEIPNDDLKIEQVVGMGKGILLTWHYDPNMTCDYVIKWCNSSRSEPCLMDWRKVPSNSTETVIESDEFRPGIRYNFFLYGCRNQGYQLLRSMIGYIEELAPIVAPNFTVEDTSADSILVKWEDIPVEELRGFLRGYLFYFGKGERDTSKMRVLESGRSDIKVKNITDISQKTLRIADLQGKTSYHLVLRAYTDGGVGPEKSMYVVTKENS

B1: human LIF (Leukemia Inhibitory Factor), expression host not stated at the place of use (ligand)
chain: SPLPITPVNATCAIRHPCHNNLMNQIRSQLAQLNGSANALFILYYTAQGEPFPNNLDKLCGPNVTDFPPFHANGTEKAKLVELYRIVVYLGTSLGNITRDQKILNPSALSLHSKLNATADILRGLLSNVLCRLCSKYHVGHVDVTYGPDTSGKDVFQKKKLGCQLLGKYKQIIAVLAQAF
notes: species not repeated there) and for the cell assays with endogenous or added human LIF; also called hLIF; Bt-LIF
B2: h5D8 (humanized 5D8 antibody comprising H2 and L2) (antibody, V domains shown)
VH: QVQLQESGGGLVKPGGSLRLSCAASGFTFSHAWMHWVRQAPGKGLEWVGQIKAKSDDYATYYAESVKGRFTISRDDSKNTLYLQMNSLKTEDTAVYYCTCWEWDLDFWGQGTMVTVSS
VL: DIVMTQTPLSSPVTLGQPASISCRSSQSLLDSDGHTYLNWLQQRPGQPPRLLIYSVSNLESGVPDRFSGSGAGTDFTLKISRVEAEDVGVYYCMQATHAPPYTFGQGTKLEIK
notes: also called H2L2; G (H2L2)
B3: A4 (rabbit monoclonal anti-LIF capture antibody) (antibody, V domains shown)
VH: EQLEESVGDLVKPGASLTLTCTASGFSFSGLYYMCWVRQAPGKGLEWIACIWTGSTDSTYYATWAKGRFTISKTSSTTVTLQMTSLTVADTATYFCARGGGVPGDGYALWGPGTLVTVSS
VL: ELVMTQTPASVSEPVGGTVTINCQASEDISSNLVWYQQKSGQPPKLLIYDASMLASGVPSRFKGSGSGTQFTLTISDLECADGATYYCQSYYVASSSYFVNGFGGGTEVV
notes: Rabbit monoclonal antibody; also called capture antibody A4; rabbit A4 monoclonal capture antibody
B4: mAb 3 (antibody, V domains shown)
VH: B3 VH
VL: B3 VL
notes: also called chimeric rabbit/human A4 antibody

Experiments:
recombinant human gp130 = biological target: T1, recombinant human gp130; assay: ELISA: LIF pre-incubated with B09 and added to a gp130-coated plate; the mAb part is detected with anti-rat IgG-HRP
[1] = biological target: T2, recombinant human LIFR (LIF receptor); assay: BLI (Octet RED 96), control experiment, h5D8 on AHC biosensor
human IL-6 (E. coli) = biological target: T3, human IL-6 (E. coli) (human, UniProt P05231 30-212, limits assumed); assay: BLI (Octet), h5D8 amine-coupled on AR2G biosensor, cytokine as analyte
T3 construct: also called huIL-6 (E. coli)
T3 sequence (P05231 30-212 limits assumed): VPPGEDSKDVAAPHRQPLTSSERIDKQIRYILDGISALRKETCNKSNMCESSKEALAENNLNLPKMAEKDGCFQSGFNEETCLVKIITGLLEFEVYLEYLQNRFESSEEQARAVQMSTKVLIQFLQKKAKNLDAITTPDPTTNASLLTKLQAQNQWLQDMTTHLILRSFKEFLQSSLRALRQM
Description: 9.0.0.26 as follows: Amine Reactive 2ndGeneration Biosensors (AR2G) were hydrated for a minimum of 15 minutes in water. […] Kinetics experiments were then performed with the following Dip and Read steps at 30° C., 1000rpm: vi) 60 seconds Baseline in lx kinetics buffer; vii) 180 seconds Association of appropriate serial dilutions of a cytokine in lx kinetics buffer; viii) 300 seconds Dissociation in 1X kinetics buffer; ix) Three Regeneration/Neutralization cycles alternating between 10mM glycine pH 2.0 and lx kinetics buffer respectively (5 seconds in each for 3 cycles).

[2] = biological target: B1; assay: cell-based or functional assay
[3] = biological target: B1; assay: competitive binding assays against LIF
human LIF (HEK-293) [4] = biological target: T4, human LIF (HEK-293) (human, UniProt P15018 23-202); assay: MSD electrochemiluminescence sandwich assay (Example 23): A4 spot-coated as capture, Sulfo-Tag 7C3 (M017C3) as detection, rhLIF titrated with saturating h5D8
T4 construct: Bought recombinant glycosylated protein; also called hLIF (HEK 293); huLIF (mammalian)
T4 sequence (P15018 23-202 limits assumed): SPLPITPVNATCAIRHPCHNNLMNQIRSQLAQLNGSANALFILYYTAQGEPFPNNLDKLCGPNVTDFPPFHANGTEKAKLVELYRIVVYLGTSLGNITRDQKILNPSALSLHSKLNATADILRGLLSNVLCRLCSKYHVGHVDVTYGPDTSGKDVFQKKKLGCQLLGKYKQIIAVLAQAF
Excerpt: Quality controls and samples are transferred in triplicate to the coated and blocked MSD plate. […] The intensity quantified by the system is proportional to the amount of bound antibody complexes and is expressed as RLU (Relative Light Units).

human LIF (HEK-293) [5] = biological target: T4, human LIF (HEK-293); assay: MSD electrochemiluminescence sandwich assay: mAb 3 (chimeric rabbit/human A4) as capture antibody, LIF titrated; detection antibody not named in the figure (7C3 in Example 23)

Binder: B1
- binding result (recombinant human gp130): binds

Binder: B2
- binding result [1]: no binding
- binding result (human IL-6 (E. coli)): no binding
- IC50 for biological inhibition (pSTAT3, U-251 cells, serum starved) [2]: 490 picomolar

Binder: B3
- binding result [3]: binds
- binding result (human LIF (HEK-293) [4]): binds

Binder: B4
- binding result (human LIF (HEK-293) [5]): binds
